Test results published in PMC9701223, “GOLPH3 protein controls organ growth by interacting with TOR signaling proteins in Drosophila” (Cell Death & Disease, 2022).

T1: GST-Lst8 (Drosophila melanogaster, UniProt Q9W328 1-313)
T1 construct: Lst8 (lethal with SEC13 protein 8), Drosophila melanogaster; full-length cDNA cloned into pGEX-6p-2; Held on glutathione beads as bait; source: E. coli ArcticExpress (DE3), purified on glutathione-Sepharose 4B beads
T1 sequence (looked up): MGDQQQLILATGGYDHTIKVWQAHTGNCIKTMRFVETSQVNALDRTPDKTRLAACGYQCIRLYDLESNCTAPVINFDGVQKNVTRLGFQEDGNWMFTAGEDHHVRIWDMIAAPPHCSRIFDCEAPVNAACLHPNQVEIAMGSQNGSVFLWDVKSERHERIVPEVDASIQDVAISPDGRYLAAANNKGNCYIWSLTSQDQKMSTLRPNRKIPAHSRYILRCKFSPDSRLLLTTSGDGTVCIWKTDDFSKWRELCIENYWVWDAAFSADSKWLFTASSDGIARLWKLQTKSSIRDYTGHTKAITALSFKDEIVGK

B1: GST-Tctp (Drosophila Translationally controlled tumor protein) (natural protein, Drosophila melanogaster, UniProt Q9VGS2 1-172, looked up)
chain: MKIYKDIITGDEMFADTYKMKLVDDVIYEVYGKLITRQGDDIKLEGANASAEEADEGTDITSESGVDVVLNHRLTECFAFGDKKSYTLYLKDYMKKVLAKLEEKSPDQVDIFKTNMNKAMKDILGRFKELQFFTGESMDCDGMVALVEYREINGDSVPVLMFFKHGLEEEKC
notes: Translationally controlled tumor protein (Tctp), Drosophila melanogaster; full-length cDNA cloned into pGEX-6p-2; Held on glutathione beads as bait; source: E. coli BL21-Codon Plus, purified on glutathione-Sepharose 4B beads
B2: 6XHis-dGOLPH3 (natural protein, Drosophila melanogaster, UniProt Q9VQ93 1-294, looked up)
chain: MNRSDGLVRRSVKPRENGGAEGGLNANTPDDNQDALDNLKDQEDNIDDGDSKETRLTLMEEVLLLGLKDKEGYTSFWNDCISSGLRGCILIELGLRGRVMIEKSGMRRRGLCTRKLILKSDQQTGDVLLDEALKHIKETDPPETVQSWIEYLSGETWNPLKLRYQLKNVRERLAKNLVEKGVLTTEKQNFLLFDMTTHPLSDNVVKCRLVKKIQDSVLSKWVNDPQRMDKRMLALIFLAHASDVIENAFAPLNDDDYEVAMKRVRELLDLDFEAESAKPNANEILWAVFMAFTK
notes: Golgi phosphoprotein 3 (dGOLPH3), Drosophila melanogaster; source: bacterially expressed

Experiments:
6XHis-dGOLPH3 = target: B2; assay: pull-down; direct interaction assay: bacterially expressed 6XHis-dGOLPH3 incubated with GST or GST-tagged proteins on glutathione-Sepharose 4B beads, 1 h, 4 °C; wash 25 mM Tris-HCl pH 7.4, 150 mM NaCl, 1% NP-40, 1 mM EDTA; western blot; conditions: both partners purified
GST-Lst8 = target: T1, GST-Lst8; assay: as above; conditions: both partners purified

Binder	binding result (6XHis-dGOLPH3)	binding result (GST-Lst8)
B1	binds	–
B2	–	binds
